Common to all, as to conditions: both partners purified
The target of test [1] is T1, Plasmodium falciparum importin α, biotinylated GST fusion protein (Plasmodium falciparum, UniProt Q8IAW0 1-545, biotin (Sulfo-NHS-Biotin reagent)).
T1 construct: importin α (IMPα) of Plasmodium falciparum; also called PfIMPα; IMPα from P. falciparum; source: recombinantly expressed, purified as GST fusion protein
T1 sequence (looked up): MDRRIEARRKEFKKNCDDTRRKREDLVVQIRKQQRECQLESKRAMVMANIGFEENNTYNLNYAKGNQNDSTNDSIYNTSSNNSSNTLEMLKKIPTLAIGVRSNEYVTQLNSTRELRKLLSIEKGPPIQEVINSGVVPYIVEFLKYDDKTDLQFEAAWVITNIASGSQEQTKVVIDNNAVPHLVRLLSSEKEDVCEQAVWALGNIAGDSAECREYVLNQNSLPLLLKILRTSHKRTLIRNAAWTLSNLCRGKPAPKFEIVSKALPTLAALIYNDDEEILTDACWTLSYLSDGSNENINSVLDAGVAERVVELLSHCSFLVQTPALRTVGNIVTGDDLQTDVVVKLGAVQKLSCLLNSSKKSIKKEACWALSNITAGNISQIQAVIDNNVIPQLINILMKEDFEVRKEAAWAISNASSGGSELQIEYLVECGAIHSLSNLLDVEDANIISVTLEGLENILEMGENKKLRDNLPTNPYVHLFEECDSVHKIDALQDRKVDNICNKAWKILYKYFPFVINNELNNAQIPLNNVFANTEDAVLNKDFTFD
Kind of test: AlphaScreen or HTRF; biotinylated IMPαs titrated against His-tagged NLS-GFPs (30 nM); apparent dissociation constant. In general terms: Bead proximity is the source of the signal in Alpha formats.

The target in test [2] is mammalian IMPα/β1 heterodimer from M. musculus (Mus musculus, UniProt P52293 1-529; P70168 1-876, biotin (Sulfo-NHS-Biotin reagent)). The description is as above.
Test [3] has as its target T2, Toxoplasma gondii importin α, biotinylated GST fusion protein (Toxoplasma gondii, biotin (Sulfo-NHS-Biotin reagent)).
T2 construct: importin α (IMPα) of Toxoplasma gondii; also called TgIMPα; T. gondii IMPα; source: recombinantly expressed, purified as GST fusion protein
Described as above.

Test [4] deals with T3, biotinylated GST-MmIMPβ1 (Mus musculus importin β1) (Mus musculus, UniProt P70168 1-876, biotin (Sulfo-NHS-Biotin reagent)).
T3 construct: Mus musculus importin β1 (MmIMPβ1); also called M. musculus IMPβ1; mammalian IMPβ1; source: recombinantly expressed, purified as GST fusion protein
Description: AlphaScreen or HTRF; His-tagged IMPαs (30 nM) titrated with increasing concentrations of biotinylated GST-MmIMPβ1 (legend: 5 nM).

Data on 2 molecules can be found in paper PMC9695642, “Conservation of Importin α Function in Apicomplexans: Ivermectin and GW5074 Target Plasmodium falciparum Importin α and Inhibit Parasite Growth in Culture” (International Journal of Molecular Sciences, 2022).

For the molecule PPKKKRKV (domain or fragment) [His-tagged T-ag-NLS-GFP (NLS of simian virus SV40 large tumour antigen fused to GFP)], the Kd in test [1] was found to be 2.9 nM; in test [2], 2.8 nM; in test [3] it was 3.9 nM.

B1: His-tagged Plasmodium falciparum importin α (natural protein, UniProt Q8IAW0 1-545, looked up)
chain: T1 sequence (looked up)
notes: importin α (IMPα) of Plasmodium falciparum; also called PfIMPα; His-tagged PfIMPα
As to B1, in test [4], the Kd stood at 1.3 nM.
